The record followed here is patent CN117186235A (SHANGHAI HUAIYUE BIOLOGICAL TECH CO LTD, dated 2023).

Assay [1] has as its target T1, 人4-1BB-hFc蛋白 (human, UniProt Q07011 24-186).
T1 construct: extracellular domain; The coated protein of the ELISA is called 人4-1BB-hFc蛋白; also called h4-1BB蛋白; 4-1BB重组蛋白; not shown: human IgG Fc fragment (hFc) of the pCpC vector
Nature of the assay: ELISA, plate coated with human 4-1BB-hFc at 1.0 μg/mL, HRP secondary antibody. Background: An ELISA detects its analyte on a solid surface through an enzyme-linked reagent.

In assay [2] the target is T2, 人源EGFRvIII (CHO-K1细胞表面表达) (human, UniProt P00533 25-1210).
T2 construct: whole, on cells; Stably expressed on CHO-K1 cells; It is a deletion variant of EGFR and not the wild type; also called hEGFRvIII; CHO-K1-hEGFRvIII
Nature of the assay: FACS on CHO-K1 cells expressing human EGFRvIII, FITC anti-human IgG Fc.

Assay [3] has as its target T3, 人4-1BB (CHO-K1细胞表面表达) (human, UniProt Q07011 24-255).
T3 construct: whole, on cells; Stably expressed on CHO-K1 cells for FACS; also called h4-1BB; CHO-K1-h4-1BB
The assay is described as follows: FACS on CHO-K1 cells expressing human 4-1BB, FITC anti-human IgG Fc.

T3 sequence (Q07011 24-255): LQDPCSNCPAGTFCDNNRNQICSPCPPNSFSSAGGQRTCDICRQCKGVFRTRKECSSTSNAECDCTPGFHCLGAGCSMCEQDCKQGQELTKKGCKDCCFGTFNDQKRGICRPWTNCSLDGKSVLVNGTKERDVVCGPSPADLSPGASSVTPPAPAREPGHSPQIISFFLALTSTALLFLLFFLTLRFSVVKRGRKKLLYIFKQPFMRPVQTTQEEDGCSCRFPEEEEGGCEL

B1: 抗4-1BB抗体PE0116全长抗体 (antibody, V domains shown)
VH: QVQLVESGGGVVQPGRSLRLSCAASGLTFSSYGMHWVRQAPGKGLEWVAVIWYDGSNKYYADSVKGRFTISRDNSKNTLYLQMNSLRAEDTAVYYCAREEVLWFGELSYNYYYGMDVWGQGTTVTVSS
VL: DIQMTQSPSSLSASVGDRVTITCRASQGISNYLAWYQQKPGKVPKLLIYAASTLQSGVPSRFSGSGSGTDFTLTISSLQPEDVATYYCQKYNSVPLTFGGGTKVEIK
notes: Fully human antibody from Harbour transgenic mice; the bispecific uses it as IgG4; also called HY0101; PE0016
Take B1: the binding result in assay [1] is listed as “binds”.

B2: 抗4-1BB/抗EGFRvIII双特异抗体HY1001007 (bispecific antibody, IgG4)
heavy (part 1 of 2): QVQLVESGGGVVQPGRSLRLSCAASGLTFSSYGMHWVRQAPGKGLEWVAVIWYDGSNKYYADSVKGRFTISRDNSKNTLYLQMNSLRAEDTAVYYCAREEVLWFGELSYNYYYGMDVWGQGTTVTVSS
heavy (part 2 of 2): GGGGSGGGGSGGGGSEIVLTQSPATLSLSPGERATLSCRASSSVSSSYLHWYQQKPGQAPRLLIYSTSNLAAGIPARFSGSGSGTDFTLTISSLEPEDFAVYYCQQYSGYPLTFGGGTKVEIKGGGGSGGGGSGGGGSQVQLVQSGAEVKKPGASVKVSCKASGYTFTDYNMDWVRQAPGQGLEWMGDINPNNADTIYNQKFKGRVTMTRDTSTSTVYMELSSLRSEDTAVYYCARGDYDGYYPVYYAMDYWGQGTTVTVSS
light: DIQMTQSPSSLSASVGDRVTITCRASQGISNYLAWYQQKPGKVPKLLIYAASTLQSGVPSRFSGSGSGTDFTLTISSLQPEDVATYYCQKYNSVPLTFGGGTKVEIK
notes: IgG-scFv format: PE0116 IgG4 with the 043-1 VL-VH scFv fused to the C-terminus of the heavy chain (PE0116VH-CH-043-1VLVH); also called CH-scFv(043-1VLVH)-IgG4(PE0116); not shown: human IgG4 heavy chain constant region (from the expression vector); human light chain constant region of the expression vector; kappa or lambda not
As to B2, the binding result in assay [2] and in assay [3] was “binds” each time.
